Data: the nanobody polyreactivity screen of Harvey et al. (2022)

Test: yeast display, Sf9 membrane polyspecificity reagent, FACS + sequencing; frameworks hold sequencing errors
In short: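 Using colony PCR, genes from sorted yeast display clones were amplified, then sequenced on MiSeq at 2 × 250 and filtered by CDR length. The clones had been stained with 10% biotinylated, detergent-solubilized Sf9 membrane reagent for 1 hour at 4 °C and sorted by FACS into low and high (top ~1%) gates on anti-HA and streptavidin fluorescence. Polyreactivity labels come from the gate of origin.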

| Sequence | polyreactivity (PSR sort gate) |
| --- | --- |
| QEQLQESGGGLVQAGGSLRLSCAASGNIYDADIMGWYRQAPGKERELVTSITDGGSTNYADSVKGRFTISRDNAKNTVYLQMNSLKPEDTAVYYCAAIAYPDIPTSFDYNSDYSYWGQGTQVTVSS | low polyreactivity |
| QGQLVESGGGLVQAGGSLRLSCAASGFTFARNVMGWSRQAPGTERELVAAITTSGGSTYYADSVKGRFTISRDNAKNTVYLQMNSLKPEDTAVYYCARRVYGYYIPYNYWGQGTQVTVSS | high polyreactivity |
| QVQLVESGGGLVQAGGSLRLSCAASGSTFRWNAMGWYTPAPGKERELVAAITSSGSTYYADSVKGRFTISRDNAKNTVYLQMNSLNPEDTAVYSCAGRANGYWNTYELDYWGQGIQVTVSS | low polyreactivity |
| QVQLVESGGGLVQAGGSLRLSCAASGFTFVGNAMGWSRQAPGKERELVATITSGGNTKYADSVKGRFTISRDNAKNTVYLQMHSLKPEDTAVYYCAAAKYNYRRFNYWGQGTQVTVSS | low polyreactivity |
| QVQLVESGGGLVQAGGSLRLSCAASGRTFFGYAMGWYRQAPGKERELVAAISSGGSTYYADSVKGRFTISRDNAKNTVYLQMYSLKPEDTAVYYCATAFYYYTSGTTLLFRYDYWGQGTQVTVSS | low polyreactivity |
| QVQLVESGGCLVQAGGSLRLSCAASGNTFSTYTMGWYRQAPGKERELVAALTRSRGRTYYADSVKGRFTISRDTAKNTVYLQMNSLKPEDTAVYYCNAYTADLDDYWGQGNQVTVSS | high polyreactivity |
| QVQLVESGGGLVQAGGRLRLSCAASGSIFVPNAMGWYRQALGKDRELVAAITYSGVDTYYADSVMGRFTISRDNAKNTVYLQMNSLKPEDTAVYYCAADNGRVGYDYWGQGTQVSVSS | low polyreactivity |
| QVQLVESGGGLVQAGGSLRLSCAASGSTSRTYAMGWYRQAPGQEMELVAAISSSGGRTYYADSVKGRFTISRDTAKNTVYLEMNSLKPEDTAVYYCNARTYSYRGYNYWGQGTQVTVSS | high polyreactivity |
| QVQLVESGGCLVQAGGSLRLSCAASGSIFLFNAMGWYRQAPGKDRELVATISWSGVVLRTYADSVKGRFTISRDNAKNTVYLQMNSLKPEDTAVYNCAARDLAFFTEYGYWGQGTQVSVSS | high polyreactivity |
| QVQLVESGGGLVQAGGSLRLSCAASGRIFSFYAMGWYRQAPGKERELVATISKRAGSTYYADSVKGRFTISRDNAKNTVYLQMNSLKPEDTEVYYCYAYKRGYLYRYNYWGQGTQVTVSS | high polyreactivity |
| QVQHVESGRGLVQAGGSLRLSCAASGRISYYYAMGWSRQAPGKEMELVAAITNVGGTYYADSVKGRFTISRDNAKNTVYLQMNSLKQEDTAVFYCAKDFPARHNYWYSSRFFDYWGQGTQGTVSS | low polyreactivity |
| QVQLVESGGGLVQAGGSLRLSCAASGSTLVKYAMGWYRQAPGKERELVAAISWSGGRTYYADSVKGRFTISRDNAKNTVYLQMNSLKPEDTAVYYCNAEFRGRPPSFAIKYDYWGQGTQVTVSS | high polyreactivity |
| QVQLGESGGGLVQAGGSLRLSCAASGFIFRNYAIGWYRPPPGKERELVAAISRSGGSKYYADCVKGRFTISRDKAKNSVYLQMNSLKPVDTAVYYCNKDPRGRIPVPGTWIMDYWGQGTQVTVSS | high polyreactivity |
| QVQLVESGGGLVQAGGSLRLSCAASGSILSYYAMGWYRQAPGKERELVAAISKSGGRTYYADSVKGRFTISRDNAKNTVYLQMNRLKPEDTAVYYCAAPATYKYDYWGQGTQVTVSS | high polyreactivity |
| QVQLVESGGGLVQAGGSLRLSCAASGIIFRDYGMGWSRQAPGKEREFVATITYSGGGTYYADSVKGRFTISRDKAKNTVYLQMNSLKPEDTAVYYCAAYPFYYDLAYDYWGQGTQVTVSS | low polyreactivity |
| QVQLVESGGGLVQAGGSLRLSCAASGRTFLYNARGWSRQAPGKEMELVAAITKSGGSKYYADSVKGRFTISRDNAKNTVYLQMNSLKPEDTAVYYCAAARRYYTYYREDYYYWGQGTQVTVSS | high polyreactivity |
| QVQLVESGGGLVQAGASLRLSCAASGSIFSWYTMGWYRQAPGKERELVARITTSGGTTLYADSVKGRFTISRDNAKNTVYFQMNSLKPEDTAVYYCAADRSPYWRGYVRYNYWGQGTQVTVSS | high polyreactivity |
| QVQLVESGGGLVPAGGSLRLSCAASGFIFVTNGMGWYRQAPGKERELVAAITDNGGSTYYADSGKGRFTISRDNAKNTVYLQMNSLKPEDTAVYYCNADRVVGPYDGYDYWGQGTQVTVSS | low polyreactivity |
| QVQLVESGGGLVQAGGSLLLSCAASGGTFYYYTMGWYRQAPGKERELVAAISWSGGSTYYADSVKGRFTISRDNAKNTVYLQMNSLKPEDTAVYYCAALAYVSDYDYWGQGTQVTVSS | high polyreactivity |
| QVQLVDSGGCLVQAGGSLRLSCAASGSTFPTYAMGWYRQAPGKERELVAAITWSGGSTYYADSVKGRFTISRDNAKNTVYLQMNSLKPEDTAVYYCADSAYVQPYDYWGQGTQVTVSS | high polyreactivity |

| Sequence | polyreactivity (PSR sort gate) |
| --- | --- |
| QVQLVESGGGLVQAGASLRLSCAASGFILYYYAMGWYRQAPGKERELVAAISARGGSTYYADSVKGRFTISRDNAKNTVYLQMNSLKPVDTAVYYCKKAGGYTGYTRRYEYWGQGTQVTVSS | high polyreactivity |
| QVQLVESGGGLVQAGGSLRLSCAASGLTFRIYAMGWYRQAPGKERELVAAISWNGGSTYYADSVKGRFTISRDNAMNTVYLQMNSLKPEDTAVYYFNADPSDRRYPHTWTKMGYWGQGTQVTVSS | low polyreactivity |
| QVQLVETGGGLVQAGGSLRLSCAASGRTFYGNAMGWYRQAPGKEREFVAAIRGSGGSTYYADSVKGRFTISRDNAKNTVYLQMNSLKPEDTAVSYCNRGWAYGSAYYAKYYYWGQGTQVTVSS | high polyreactivity |
| KVQLVESGGGLVQAGASLRLSCAASGSIFATYAMGWYREEPGKERELVAAITSSDGSTNYADSVKGRFTISRDYAKNTVYLQMNSLKPEDTAVYYCATVSPDRTDSDSGFDAGYDYWGQGTQVTLSS | low polyreactivity |
| QVQLVESGGGLVQAGGSLRLSCAASGLIFYDNMVWYRQGPGTETELVAAISSSGGSTSYADSVKGRFTISRDNAKNTVYLQMNILKPEDTAVYYCAADSYPAYLGFVCFDYWGQGTEVTVSS | low polyreactivity |
| QVQLVESGGGLVQAGGSLRLSCAASGYIFGGYAMGWYRQAPGKERELVAGISIGVGSTYYADSVKGRFTISRDNAKNTVYLQMNSLKPEDTAVYYCNRDSVGYDYWGQGTQVTVSS | low polyreactivity |
| QVQLVESGGGLVQAGGSLRLSCAASGNTFVSNAMGWYRPAPGKERELVAAINSGGSTNYADSVKGRFTISRDNAKNTVYLQMNSLKPEDTAVYYCNKYYDYPQRYWMDYWGQGTQVTVSS | low polyreactivity |
| QVQLVESGGGLVQAGGSLRISCAASGSIFQNYAMGGYRQAPGKERELVAAINDDSTYYADSVKGRFTISRDNAKNPVDLQMNSLKPEDTAVYYGNKEFLRRQRVTFWHLGGYWGQGTQVTVSS | low polyreactivity |
| QVQLVESGGGLVQAGGSLRLSCAASGSIFEYYAMGWYRTAPGKERELVAAISSGGPTYYADSVKGRFTISRDNAKNTVYLQMNSLKPEDSAVYYCNADLWYPDYDYWGQGTQVTVSS | low polyreactivity |
| QVQLVESGGGLVQAGGSLRLSCAASGSIFSINAMGWYRQAPGKERELVAVISWIGGNTYYADSVKGRFTISRDNAKNTVYLKMNSLKPEDTAVYYCAVATGPVSYRRYYCGQGTQVTVSS | high polyreactivity |
| QVQLVESGVGLVQAGGSLRISCAASRSTFWNNCMGWYRQAPGKERDLVAAITVRGGSTYYADSVKGRFTISRDNAKNTVYLQMNSLKPEDTAVYFCAADRWLYSWFFNYDQGDYWGQGTQVSVSS | low polyreactivity |
| QVQLVESGGGLVQAGRSLRLSCAASGRIFRFKTMGWYRQSPGKERELVAAITYSGGGTYYADSVKGRFTISRDNAKNTVYLQMNSLKPEDTAVYYCAATLYLRTIDDYWGQGTQVTVSS | high polyreactivity |
| QVQLVESGGGLVQAGGSLRLSCAASGSIFGYYAMGWYRQAPGKERELVASITRSGDTTYYADSVKGRFTISRDNAKNTVYLQMNSLKPEDTAVYYCAARRWRWYYDGFVRMDYWGQGTQVTVSS | high polyreactivity |
| QVQLVESGGGIVQAGGSLRLSCAASGIIFPYYAMGWYRQAPGKVRELVAAISSSGGSTHYADSVKGRFTISRDTAKNTVYLQMHSLKPEDTAVYYCAARDINRYPKAQPTDRSIYYWRQGTQVTVSS | high polyreactivity |
| QVQLVESGGGLVQAGGSLRLSCAASGRIFSGNAMGWYRQAPGKERELVARISRSGSNTYYADSVKGRFTISRDNAKNTVYLQMKSLKPEDTAVYYCAAKSTYWPYDRTYNSWGQVTQVTVSS | high polyreactivity |
| QVQLVESGGGLVHAGGSLRLSCAASGRIFFRYAMGWYRQSPGKEREFVATITWSGGRTHYADSVKGRFTISRDNAKNTVYLQMNSLKPEDTAVYYCAASYHRYAFDYWGQGTQVTVSS | high polyreactivity |
| QVQLVESGGGLVQAGGSLRLSCAASGFTFTTNAMGWYRQAPGKEREFVAAISRSGGSTDYADSVKGRFTISRDNAKNTVYLQMNSLKPEDTAVYYCNADPRLRQTRDYWGHGTQVTVSS | high polyreactivity |
| QVQLVESGGGLVEAGGSLRLSCAASGGIFKIYSMGWYIQAPGKERELVAGINWSDTGTYYADSVKGRFTISRDNAKNTVYLQMNSLKPEDTAVYYCAVSGYPVYITYVSYDYDYWGQGTQVNVSS | low polyreactivity |
| QLQLVESGGGLGQAGGRLRLSCAASGSTFGRYAKGCYIQAPGKERELVAAITSDTGNTNFADSVKGRLTISRDNAKNTVYLQMNSLKPEDTAVYYCAAATFWVLWGDVIGNYDSWGQGTQVTVSS | low polyreactivity |
| QVQLVESGGGLVQAGGSLRLSCAASGSTFTSYTMGWYRQAPGKERELVARNTRGGGSTYYADSVKGRFTISRDNAKNTVYLQMNSLKPEDTAVYYCAKQVVGRAYYSWGQGTQVTVSS | low polyreactivity |
